This is an account of results in the DeepSol protein solubility set.

This series is described as follows: soluble on expression in E. coli; label from the status in PepcDB or PDB records.
Take “MSLALDGKSLSGFSHVHVGSLYNAEALEKSVEEMQVETSRRGYAFAVVRPRGDRNFDAHTVSIVFAIDEGPRTYIERINIRGNTRTRDYVIRREFDISEGDAYNRSLVDRAERRLKNLDFFKTVKITTEPGSSSDRVILDVDVEDKSTGDFSVSGGYSTTQGALAEVSVSERNLLGRGLYAKASVQYGQYARGYSLSFVEPYLLDYRVALGLDFYQREQLANQYISYNIKTLGFSPRLGFGLREDLTLQLRYSIFRQEIGLPTSLRNCNNNIGGPNYNPSPAFLNSIGQFNPNNPTLGCYSDGEASLPIRQELGGQTLTSMLGYTLTYNTLDNNKNPTDGLLIDFRQDFAGVGGDVKYLKTAIDAKYYQPLVSDIVGLVHLQGGILNNVGAYAGQNGIRMLDNFQMGPNLVRGFAPNGIGPRDINFLSTMDALGGTQYWGASVELQMPFWFLPKEVGLKGAVYADAGSLWGYKGPTSNLATNEFNAPGCMPSTSRSNPGTCAGLQFDDTNVVRTSVGVGLIWQSPFGPLRFDYAVPITKGKYDRVQEFRFGGGTTEGHHHHHH”: the “soluble on expression in E. coli” value was “not soluble”. To “MRLMKSYKNLKEEVWDTNRCSGCGACVAVCPVNNLYFREESPVKFECDECSCIIVPADIVEHPISAEFCKTVVYDVPCGACYDACPRIKKSAIPKPKGLGNILKAVRAKASIEIKNAQNGGVVTAILANAFDEGLIDGAIVMMDDKWTLEPESYLALSKEDVLKSAGSKYLWKGPILKALKTAVMEKKLKKLAVVGTPCVINAIYQILSSDNDLLKPFREAIRLKIALFCFETYDYSKMIKKLNEDGIEPWEVKKMDIESGKLKITLINGNTVEYKLKDVESAMRNGCKVCGDFTGLTSDISVGNVGTEKGYSTVLIRNKWGEGFFKRAVYNGYITYDENVDLEAVEKLVELKKKRVKKDLEHHHHHH” belongs “soluble”; to “MDGAGAEEVLAPLRLAVRQQGDLVRKLKEDKAPQVDVDKAVAELKARKRVLEAKELALQPKDDIVDRAKMEDTLKRRFFYDQAFAIYGGVSGLYDFGPVGCALKNNIIQTWRQHFIQEEQILEIDCTMLTPEPVLKTSGHVDKFADFMVKDVKNGECFRADHLLKAHLQKLMSDKKCSVEKKSEMESVLAQLDNYGQQELADLFVNYNVKSPITGNDLSPPVSFNLMFKTFIGPGGNMPGYLRPETAQGIFLNFKRLLEFNQGKLPFAAAQIGNSFRNEISPRSGLIRVREFTMAEIEHFVDPSEKDHPKFQNVADLHLYLYSAKAQVSGQSARKMRLGDAVEQGVINNTVLGYFIGRIYLYLTKVGISPDKLRFRQHMENEMAHYACDCWDAESKTSYGWIEIVGCADRSCYDLSCHARATKVPLVAEKPLKEPKTVNVVQFEPSKGAIGKAYKKDAKLVMEYLAICDECYITEMEMLLNEKGEFTIETEGKTFQLTKDMINVKRFQKTLYVEEVVPNVIEPSFGLGRIMYTVFEHTFHVREGDEQRTFFSFPAVVAPFKCSVLPLSQNQEFMPFVKELSEALTRHGVSHKVDDSSGSIGRRYARTDEIGVAFGVTIDFDTVNKTPHTATLRDRDSMRQIRAEISELPSIVQDLANGNITWADVEARYPLFEGQETGKKETIEELEHHHHHH”, “soluble”; to “SNAMIRNIVFDLGGVLIHLNREESIRRFKAIGVADIEEMLDPYLQKGLFLDLESGRKSEEEFRTELSRYIGKELTYQQVYDALLGFLEEISAEKFDYIDSLRPDYRLFLLSNTNPYVLDLAMSPRFLPSGRTLDSFFDKVYASCQMGKYKPNEDIFLEMIADSGMKPEETLFIDDGPANVATAERLGFHTYCPDNGENWIPAITRLLREQK”, “soluble”. To “MEERILDRLAALDPDLMAYIRDFAYDTVYERPGLDLKTKELLASVLLVSLGSPDELKTHLRGALRAGATEQEVREALLLCVPYLGFPRTVAAFSQLQS” belongs “soluble”; to “MQINNQSRDVFYVSDGTAITCETLGHVVLGQFPFIPNEKTFPFVESQDKVADVVKEIETSYQRNGVKPLVFFSIVVPGVREMLLEAPAYSYDVLESIVQKVQDDIQMAPAPKLQRSRSVGKDSDTYFDRIAAIEYTLAHDDGITLKGLEQADIILLGVSRSGKTPTSLYMAMQFGLRVVNYPFIAEDVKMMRLLPEFEVHRHKLFGLTITPERLNEIRENRLSGSDYASEEQCKLELDTVEALFRREAIPYINTSSLSVEEISTRILERAGMKRRLFGLEHHHHHH”, “soluble”; to “MLEKELSFADLSISLSELYEAMGYADAVPDEAVEKEVRGVLGRVEAVTSPRFCFFISGGELDESKDSLSVGDTCFSIGKIITRQLRGSESFAFFAATAGTGFERFQHTLQQEGDMVKVYIADAIGSVIAEKTADCMEIALDEYIRDRGWRHTNRFSPGYCGWHVSEQKKLFPLFPSAEPCGIRLTDSGLMLPIKSVSGVIGLGDGVRKLEYTCGLCTYDRCYRRKQRGLEHHHHHH”, “soluble”. To “MAHHHHHHMEGVSNILSIAGSDSCGGAGIQADIKTAMGLGCHCCTALVVLTAQNTKEVKRIVEIEEAFIVDQLDSIFADVTIDVVKLGVLYSKKIISLVSQYIVQMNKKRGKKLLVVFDPVFVSSSGCLLVENLEYIKFALDLICPISCIITPNFYECKVILQALDCQMDLSKANMTELCKLVTRMLDINACLLKSCNVGENSAEENEVYAVDHLCIRKVGSIPEGEVIQRDAGELGQSAPGGVTYLYDVYKLRSKRKPGVDVHGTGCTLSTAIACYLAKKHNILQSCIESKKYIYNCIRYAYPFGSKSQGLNHLKASQELPTFTDLEVIPIVQDSP” belongs “soluble”; to “MASPVIYQAEDAIIYNAILETVNAGYTGSCYVNYHNEVGGYIEWNVNAPSSGSYALIFRYANGTTANRPMRITVNGNIVKPSMDFVSTGAWTTWNEAGIVANLNQGNNVIRATAIASDGGPNVDYLKVFSANAFQPVSLEHHHHHH”, “soluble”; to “MSVDLAHIRQVRAEADCLFNNDEVEAAIGRVAEAINRDLGETNPVVFCVMNGGLIFSGKLLPLLDFPLELSYLHATRYRNETSGGELFWKAKPEISFIDRDVLIIDDILDEGHTLSAIIDFCKHAGARAVHTAVLVDKEHERKARPDLKASFTGLYCADRYVFGYGMDYKGYWRNAAGIFAVKGL”, “not soluble”.

As to “MDFGKTNSKLFVFGQDGGILDERRTQPKWTHQDGFSVLDEAALHDWALGAVTEAVENHGVEGVMVSGHGCTFALVDDAALTHPILDYEQEPPAEIAARIDHRIPDFAETFSPRLPLGFNYGRHMLWVQEVDPDAFAAAKSILGYPQYWSWRLGGRPVSEVSYLGCHSHLWAPRSQDFSSLVDAEGWRGQMPAFARAGAVIGERRLGSSSRPIAIHNGVHDSNAALHAYRRQELGLEHHHHHH”, the “soluble on expression in E. coli” value is “soluble”. Take “MENKTNNTKTEIKKKDMSKTFETIKGELFFEDKVIQKIIGIALDEIDGLLTIDGGFFSNIAGKLVNTDNTTSGVDVEVGKKQVAVDLSIVAEYGKDVTTIYDKMKQVISNEVKKMTGLDVIEINVNVVDVKTKEQHENDSVTLQDHLSDAASATGEFASKQFEKSKEALGVASEKVSDGVQNVKEETEPRVKLEHHHHHH”: the “soluble on expression in E. coli” value is recorded as “soluble”. “MGHHHHHHSHMESLVVGDIAELRPNQGTLSLFTNEAGGILDDLIVTNTSEGHLYVVSNAGCWEKDLALMQDKVRELQNQGRDVGLEVLDNALLALQGPTAAQVLQAGVADDLRKLPFMTSAVMEVFGVSGCRVTRCGYTGEDGVEISVPVAGAVHLATAILKNPEVKLAGLAARDSLRLEAGLCLYGNDIDEHTTPVEGSLSWTLGKRRRAAMDFPGAKVIVPQLKGRVQRRRVGLMCEGAPMRAHSPILNMEGTKIGTVTSGCPSPSLKKNVAMGYVPCEYSRPGTMLLVELPSGPCF”: the “soluble on expression in E. coli” value is on record as “not soluble”. To “MLQINRHILDNGLRLVHAQDTSTQMVALNILYNVGARDENPEHTGFAHLFEHLMFGGSVNIPDYDAPLQLAGGENNAWTNNDITNYYLTVPRQNVETGFWLESDRMLSLDFSERSLEVQRGVVMEEFKQRCLNQPYGDVGHLLRPLAYRVHPYQWPTIGKELSHIANATLEEVKDFFFRFYAPNNAVLAVTGNISFEEALHLTEKWFGPIPRREVPLRQLPPEPVQTEERRLVVERNVPLDSLFMAYHMCDRADSDYYAFDILSDILSNGRSSRLNQHLVQEKQLFSSIDAYISGTLDAGLFHISGKPAAGVSLEEAEAAVREELNELQSALIQEQELEKVKNKFESTQIFGNINYLNVATNLAWFELNGRAEDMEKEVERYRAVTADRLNAVAQTAFREENGVVLYYKSSRGEKDETYI” belongs “not soluble”; to “MGSDKIHHHHHHMINDHQYVADLHIHLGQTASNRPVKITAARTLTLENIIDYARTVKGIDIIGVIDCHVPEVLEGLKHSIESGEAYELKGGGIRFPDVTLILGTEIEVYDEESLGPVHVLAYTPTWNAMMELSSWMGSRMKNPTLSSQRLYETSIVLQQKVKELGGLFIPAHAFTPFKGVYGKGVKQSMGEIFDLALIDGIELGLSADTSMADQVEELHRFPFLSNSDAHSLEKLAREYQILHLYEPSFQAFQSALRDKDKCSIVANYGLNPYLGKYYETTCAQCRTPMKGSACETCGSSKVVKGVSERLTELATASENNGKQRPPYVHQIPLEFIPKVGKRTLARLREAFGTDMDILHQATFEQLCDVIPNHIAEAIVIAREGKATIKRGGGGHYGKMIGTE”, “not soluble”; to “MGSDKIHHHHHHMNNKPVVGISGCLTGATVRFDGGHKRMDFVMNSLAPWVAYKPICPEVAIGLPVPRPALRLIQTTCGDIRMRYSHAPHDDVTERMNAFADRFLPTIGELAGFIVCAKSPSCGMERVRLYDEKGNRGRKAGTGLFTAAMMDKYPWLPIEEDGRLHDPVLRENFIARIFALHELNALRAQGLSRHSLLAFHSRYKLQLLAHHQAGYREIGPFVARLHEWDDLDAFFVRYREKLMAILRHPASRKNHTNVLMHIQGYFHRALNSRQRAELREVILGYRAGRLPILAPLTLLKHYLAEHPDDYLRSQNYFEPYPDTLGLRLAIT”, “not soluble”. Regarding “MSLKEPRWRDPELPEVLAMLRHPVDPVKANAAAYLQHLCFENEGVKRRVRQLRGLPLLVALLDHPRAEVRRRACGALRNLSYGRDTDNKAAIRDCGGVPALVRLLRAARDNEVRELVTGTLWNLSSYEPLKMVIIDHGLQTLTHEVIVPHSGWEREPNEDSKPRDAEWTTVFKNTSGCLRNVSSDGAEARRRLRECEGLVDALLHALQSAVGRKDTDNKSVENCVCIMRNLSYHVHKEVPGADRYQEAEPGPLGSAVGSQRRRRDDASCFGGKKAKEEWFHQGKKDGEMDRNFDTLDLPKRTEAAKGFELLYQPEVVRLYLSLLTESRNFNTLEAAAGALQNLSAGNWMWATYIRATVRKERGLPVLVELLQSETDKVVRAVAIALRNLSLDRRNKDLIGSYAMAELVRNVRNAQAPPRPGACLEEDTVVAVLNTIHEIVSDSLDNARSLLQARGVPALVALVASSQSVREAKAASHVLQTVWSYKELRGTLQKDGWTKARFQSAAATAKGPKEGHHHHHH”, the “soluble on expression in E. coli” value was “not soluble”. To “GSTERPVAGPYITFTDAVNETTIMLKWMYIPASNNNTPIHGFYIYYRPTDSDNDSDYKKDMVEGDKYWHSISHLQPETSYDIKMQCFNEGGESEFSNVMICETKARKSSGQ” belongs “soluble”.
